Results from the supplement of paper PMC11908140.

B1: library; numbered along this chain (parent)
chain: MRKPRAAVGSGHRKQAASQEGRQKHAKNNSQAKPSACDGLARQPEEVVLQASVSSYHLFRDVAEVTAFRGSLLSWYDQEKRDLPWRRRAEDEMDLDRRAYAVWVSEVMLQQTQVATVINYYTGWMQKWPTLQDLASASLEEVNQLWAGLGYYSRGRRLQEGARKVVEELGGHMPRTAETLQQLLPGVGRYTAGAIASIAFGQATGVVDGNVARVLCRVRAIGADPSSTLVSQQLWGLAQQLVDPARPGDFNQAAMELGATVCTPQRPLCSQCPVESLCRARQRVEQEQLLASGSLSGSPDVEECAPNTGQCHLCLPPSEPWDQTLGVVNFPRKASRKPPREESSATCVLEQPGALGAQILLVQRPNSGLLAGLWEFPSVTWEPSEQLQRKALLQELQRWAGPLPATHLRHLGEVVHTFSHIKLTYQVYGLALEGQTPVTTVPPGARWLTQEEFHTAAVSTAMKKVFRVYQGQQPGTCMGSKRSQVSSPCSRKKPRMGQQVLDNFFRSHISTDAHSLNSAAQ

Variants of: B1
Assay: 8OG:A repair function score (normalized; synonymous = 0, nonsense = -1) (normalized log-likelihood score); higher = more repair activity (WT-like)
Conditions: with 8OG:A DNA repair reporter (GFP) in HEK-293 MUTYH KO cells
Protocol: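 Saturation mutagenesis (NNN codon scan) of the MUTYH cDNA (521-aa nuclear isoform NM_001048174.1 / NP_001041639), stably expressed under doxycycline induction in HEK-293 MUTYH knockout cells. Cells were co-transfected with an 8OG:A-bearing GFP repair reporter plus mCherry and sorted 72 h later into GFP+ and GFP− bins, three replicates per tile. The Rosace log2 enrichment (GFP+ vs GFP−) was converted per tile to a normalized function score with synonymous variants centered at 0 and nonsense variants (codons 1-471) at -1; low-abundance variants were removed.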

Variant	8OG:A repair function score
P474C	-0.00224
E303W	-0.175
E303N	-0.0416
Y152K	-1.07
W146V	-0.296
V206F	-0.894
Q470N	0.0117
Q470S	-0.00501
R389F	-0.357
T449C	-0.0406
T449K	-0.144
A245T	-0.0132
K127L	-0.0156
K127M	-0.286
P299N	-0.099
P299M	-0.0166
P299D	0.0184
L325D	-0.204
T406I	0.313
A194Y	-1.23
L40V	0.0896
A291C	-0.0481
A291V	-0.0187
E433D	-0.241

Variant	8OG:A repair function score
E433T	-0.00904
S71C	-0.00534
T324M	0.0106
M108L	-0.662
Q426M	-0.183
P352D	-0.0437
S153D	-0.368
T191R	-1.16
A259Q	0.0355
V230I	-0.264
C216Q	-0.579
K422D	-0.458
K422R	0.334
H416P	-0.576
E46G	-0.0545
F453I	-0.334
V102G	-1.36
V102I	-0.00401
V62L	0.00583
L73K	-0.453
Q521E	0.00527
Q521S	-0.00358
Q521D	-0.0822
L83I	-0.196

Variant	8OG:A repair function score
G475Q	-0.00214
G475L	0.0136
S276Y	0.0309
S487Y	0.00217
S487Q	-0.00246
P437Y	-0.351
P442C	-0.141
T346Q	-0.787
Q43E	0.0951
E287N	-0.0363
L448S	-0.184
L370P	-0.657
L370E	-1.06
V218M	0.0454
E302A	-0.273
E302D	-0.367
T455G	-0.211
R219G	-0.758
A280F	-0.597
R2H	-0.00678
S486F	0.00694
K164N	-0.37
K164L	0.0383
P488W	-0.00344

Variant	8OG:A repair function score
G170F	-0.166
D249V	-0.579
Q358D	-0.342
V301L	-0.0363
V414R	-0.625
P320C	-0.000958
A115L	-0.0647
R446G	-0.67
R446K	-0.277
R446Q	-0.119
V284M	-0.00894
V284N	-0.0944
Q181N	-0.118
Q181F	-0.0623
Q181K	-0.0739
Q271I	-0.0397
P377G	-1.26
S231L	-0.0707
S231H	-0.0123
A220E	-0.465
A137P	-0.869
V362T	-0.028
Q232N	-0.0697
G150E	-1.13

Variant	8OG:A repair function score
G150C	-0.982
D96H	-0.132
Q450D	-0.113
Q450P	-0.118
Q450H	0.0291
Q450R	0.0701
Q450V	0.073
G155C	-0.117
T122F	-0.0723
I198R	-0.575
I198H	-0.963
Q288W	-0.0268
Q484H	0.0028
V142H	-0.882
L131Q	-0.814
R189N	-0.421
Y120I	-0.425
Y120F	-0.0973
N210E	-0.997
P247W	-1.03
P273G	-0.625
G368F	-0.769
G368T	-0.332
E90A	0.00572

Variant	8OG:A repair function score
P494S	-0.00543
S138Y	-0.0612
A334T	-0.0373
A334K	0.00736
R157T	-0.216
G429Y	-0.0542
V379D	-0.793
K493Q	-0.107
K493V	-0.0351
V117Y	-1.28
D502C	-0.00279
L184D	-1.16
Q323D	0.0164
V65E	-0.196
G471F	-0.0055
G471Q	0.00928
A199F	-1.13
Q50R	0.0284
L180Y	-0.571
L241I	-0.264
P404A	-0.142
I509M	-0.0347
I509P	0.0272
R398G	-0.102

Variant	8OG:A repair function score
E79V	-0.000865
E79C	-0.0344
R81A	-0.345
N329P	-0.438
S74F	-0.0182
S74R	0.00425
V214F	-0.287
A101T	-0.047
R88Q	-0.0232
A36T	0.118
Q472N	0.0284
L430R	-0.655
L430F	0.0205
L183S	0.0487
H407G	-0.0586
D322V	0.0232
D322E	0.0971
L237A	-0.321
Q144R	0.0872
N366Y	0.00766
F330K	-0.928
N503T	0.00666
N503H	-0.0815
